Test results reported in article PMC5670239, “Structural basis for mutually exclusive co-transcriptional nuclear cap-binding complexes with either NELF-E or ARS2” (Nature Communications, 2017).

T1: CBC (Homo sapiens, UniProt P52298)
T1 sequence (P52298 1-156): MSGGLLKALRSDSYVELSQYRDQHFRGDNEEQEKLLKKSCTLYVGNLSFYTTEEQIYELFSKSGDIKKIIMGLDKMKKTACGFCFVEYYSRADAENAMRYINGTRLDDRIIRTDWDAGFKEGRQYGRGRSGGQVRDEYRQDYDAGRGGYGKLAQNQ
T1 sequence (Q09161 20-790 partner): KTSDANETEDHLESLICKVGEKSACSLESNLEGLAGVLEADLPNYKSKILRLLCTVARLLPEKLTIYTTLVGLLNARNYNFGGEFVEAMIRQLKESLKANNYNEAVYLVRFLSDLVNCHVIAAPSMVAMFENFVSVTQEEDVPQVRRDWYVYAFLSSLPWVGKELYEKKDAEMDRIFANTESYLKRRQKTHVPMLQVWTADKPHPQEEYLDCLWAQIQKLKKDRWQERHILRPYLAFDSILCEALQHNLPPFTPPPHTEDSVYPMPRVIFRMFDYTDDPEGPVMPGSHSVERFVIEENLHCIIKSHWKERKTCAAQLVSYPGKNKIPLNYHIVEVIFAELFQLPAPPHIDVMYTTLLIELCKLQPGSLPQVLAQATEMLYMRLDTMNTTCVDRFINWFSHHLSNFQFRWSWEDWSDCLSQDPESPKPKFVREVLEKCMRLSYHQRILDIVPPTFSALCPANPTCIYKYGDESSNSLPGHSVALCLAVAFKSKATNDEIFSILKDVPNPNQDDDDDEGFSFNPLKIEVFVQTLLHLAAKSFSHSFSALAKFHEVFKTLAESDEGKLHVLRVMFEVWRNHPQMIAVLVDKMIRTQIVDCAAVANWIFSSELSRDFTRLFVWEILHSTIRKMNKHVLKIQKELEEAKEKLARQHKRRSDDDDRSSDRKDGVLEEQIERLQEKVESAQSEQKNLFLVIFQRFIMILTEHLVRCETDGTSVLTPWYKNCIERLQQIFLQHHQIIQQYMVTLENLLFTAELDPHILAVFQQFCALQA


Tests used:
CBC [1] = molecular target: T1, CBC; assay: Size exclusion chromatography (gel filtration) co-elution with CBC, without m^7GTP; type: binding; settings: fractions analysed by SDS-PAGE, absence of m^7GTP
Procedure: (§1) Fig. 1 The interaction of CBC with ARS2 is enhanced in the presence of m^7GTP. a Schematic diagram of the domain structure of ARS2 based on ref. [26]. b Gel filtration chromatogram and Coomassie-stained SDS-PAGE of CBC-ARS2 in the presence and absence of m^7GTP. Purified recombinant CBC and ARS2^147–871 were mixed with (orange) or without (blue) 500 µM m^7GTP and subjected to gel filtration. Their elution profiles were overlaid (left) and single fractions analysed by SDS-PAGE (middle and right). Purified recombinant CBC and C-terminally truncated ARS2^147–845 were mixed with 500 µM m^7GTP and analysed in a similar way (bottom left). c ITC data and curve fit to derive the affinity of different ARS2 constructs for CBC. CBC or m^7GTP-CBC in the sample cell was titrated by ARS2. […] K D values and standard deviation represent the average from at least two independent experiments. d Sequence alignment of the C-terminus of ARS2. Conserved residues are highlighted in red. Figure made with ESPript[54]
Fig. 2 The interaction of CBC with NELF-E is enhanced in the presence of m^7GTP. a Schematic diagram of the domain structure of NELF-E. b Gel filtration chromatogram and Coomassie-stained SDS-PAGE of CBC-NELF-E in the presence and absence of m^7GTP. […] Their elution profiles were overlaid (left) and single fractions analysed by SDS-PAGE (middle and right). […]

[2] = test system: CBC–NELF–E complex immobilised on m^7GTP-sepharose; assay: Displacement pull down on m^7GTP-sepharose, CBC–NELF–E; type: binding, human; settings: increasing amounts added, 1 h at 4 °C, flow through and elution by SDS-PAGE
Procedure: Fig. 4 Incompatibility of ARS2-PHAX and NELF-E binding to CBC. a, b Competition on m^7GTP-sepharose. a In separate experiments, different amounts of ARS2^147–871 were added to preformed CBC–NELF–E complex immobilised on m^7GTP-sepharose. […] The fluorophore FAM is represented with a star. Note that different constructs of NELF-E and ARS2 were used in c, d, and e compared to f, g, and h and are therefore represented by slightly different shapes. Error bars show the SD of three experiments
CBC-NELF-E^1–380 or CBC-PHAX^1–394 were immobilised on m^7GTP-sepharose and incubated for 1 h at 4 °C with different amounts of ARS2^147–871 or NELF-E^1–380 in 20 mM HEPES, pH 7.8, 120 mM NaCl, 2 mM tris(2-carboxyethyl)phosphine, respectively. The flow through, as well as the elution from the beads after extensive washing, was analysed by SDS-PAGE followed by Coomassie staining.

CBC [3] = molecular target: T1, CBC; assay: Size exclusion chromatography (gel filtration) co-elution with CBC, with m^7GTP; type: binding; settings: gel filtration with 500 µM m^7GTP, fractions analysed by SDS-PAGE
Procedure: as §1
Fig. 2 The interaction of CBC with NELF-E is enhanced in the presence of m^7GTP. a Schematic diagram of the domain structure of NELF-E. b Gel filtration chromatogram and Coomassie-stained SDS-PAGE of CBC-NELF-E in the presence and absence of m^7GTP. Purified recombinant CBC and NELF-E were mixed with (orange) or without (green) 500 µM m^7GTP and subjected to gel filtration. Their elution profiles were overlaid (left) and single fractions analysed by SDS-PAGE (middle and right). Purified recombinant CBC and NELF-E^244–360 were mixed together with 500 µM m^7GTP and similarly analysed (bottom left). c ITC data and curve fit to derive the affinity of different NELF-E constructs for CBC. CBC or m^7GTP-CBC in the sample cell was titrated by NELF-E^244–380 or NELF-E^360–380. The data were presented as described in the caption to Fig. 1c. d Sequence alignment of the C-terminus of NELF-E. Conserved residues are highlighted in red. Figure made with ESPript[54]

Row | Displacement of NELF-E from immobilised m^7GTP–CBC–NELF–E complex [2] | Molecule | Interaction with CBC by SEC (CBC [1]) | Interaction with CBC by SEC in the presence of m^7GTP (CBC [3])
1 |  | PHAX 120–308: human PHAX residues 120–308 (protein, UniProt Q9H814 120-308, looked up, fragment) AVLQEQNQDAVATELGILGMEGTIDRSRQSETYNYLLAKKLRKESQEHTKDLDKELDEYMHGGKKMGSKEEENGQGHLKRKRPVKDRLGNRPEMNYKGRYEITAEDSQEKVADEISFRLQEPKKDLIARVVRIIGNKKAIELLMETAEVEQNGGLFIMNGSRRRTPGGVFLNLLKNTPSISEEQIKDIF | No interaction via SEC | 
2 | could displace NELF-E | ARS2^147–871: human ARS2 lacking the putatively unstructured N-terminal region (protein, UniProt Q9BXP5 147-871, looked up, fragment) PVMKTFKEFLLSLDDSVDETEAVKRYNDYKLDFRRQQMQDFFLAHKDEEWFRSKYHPDEVGKRRQEARGALQNRLRVFLSLMETGWFDNLLLDIDKADAIVKMLDAAVIKMEGGTENDLRILEQEEEEEQAGKPGEPSKKEEGRAGAGLGDGERKTNDKDEKKEDGKQAENDSSNDDKTKKSEGDGDKEEKKEDSEKEAKKSSKKRNRKHSGDDSFDEGSVSESESESESGQAEEEKEEAEEALKEKEKPKEEEWEKPKDAAGLECKPRPLHKTCSLFMRNIAPNISRAEIISLCKRYPGFMRVALSEPQPERRFFRRGWVTFDRSVNIKEICWNLQNIRLRECELSPGVNRDLTRRVRNINGITQHKQIVRNDIKLAAKLIHTLDDRTQLWASEPGTPPLPTSLPSQNPILKNITDYLIEEVSAEEEELLGSSGGAPPEEPPKEGNPAEINVERDEKLIKVLDKLLLYLRIVHSLDYYNTCEYPNEDEMPNRCGIIHVRGPMPPNRISHGEVLEWQKTFEEKLTPLLSVRESLSEEEAQKMGRKDPEQEVEKFVTSNTQELGKDKWLCPLSGKKFKGPEFVRKHIFNKHAEKIEEVKKEVAFFNNFLTDAKRPALPEIKPAQPPGPAQILPPGLTPGLPYPHQTPQGLMPYGQPRPPILGYGAGAVRPAVPTGGPPYPHAPYGAGRGNYDAFRGQGGYPGKPRNRMVRGDPRAIVEYRDLDAPD |  | only co-eluted in the presence of the cap analogue m^7GTP
